Data taken from the supplement of paper PMC10724198.
± gives the standard deviation of the averaged measurements.

What follows are sequences tested on Saccharomyces cerevisiae (assay: protein stability index of tFT-peptide fusion (C-terminal peptide) (PSI (0-1 scale)); higher = more stable (slower turnover)). Details: genetic background: wild type; temperature: 30 C.
Experimental: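 Multiplexed protein stability (MPS) profiling in S. cerevisiae. Random 12-aa peptides (tFT-X12 library) are fused to the C-terminus of a sfGFP-mCherry tandem fluorescent timer, after mCherry and a GGGS linker. Cells are FACS-sorted into 8 mCherry/sfGFP bins and deep-sequenced. The protein stability index (PSI) is the read-weighted bin average, scaled from 0 (unstable) to 1 (stable). Only peptides with >10 reads are reported; cells were grown at 30 °C in SC-His with glucose.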
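Further: PSI is a weighted mean of sequencing reads over stability bins, variants kept only with over 10 reads, mCherry proximal and sfGFP distal, peptide attached via GGGS linker.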

Sequence	protein stability index
HSPASLPHLSGK	0.728 ± 0.063
HSPPPLPLPTHP	0.719 ± 0.077
HSSALFSSRLRF	0.7223 ± 0.0036
HVAETRLRDHGW	0.714
HVGEVERGGMGG	0.7157 ± 0.0021
HVPGGRADMTRS	0.706 ± 0.0097
HVRARLVVHQRA	0.631 ± 0.047
HVRSPLRRVEKF	0.6988 ± 0.006
HVSSKMEWGNRD	0.763 ± 0.066
HVTGFVQRYLCH	0.711 ± 0.092
HWPSGGGGPASH	0.753 ± 0.037
HWRCASLTLSAG	0.8 ± 0.02
HYYYPSPPSSRH	0.621 ± 0.042
IACSLSSFSPVW	0.687 ± 0.031
IAKAVCESLCLQ	0.7146 ± 0.0063
IALPPPGILDSA	0.683 ± 0.16
IALPPPLLPPSL	0.706 ± 0.051
IALTSCVPDLSF	0.6911 ± 0.0037
IAQVDLPDRMKT	0.6937 ± 0.0061
IARYLGRYERNV	0.687 ± 0.042
IAVHLSVSSRSW	0.616 ± 0.035
ICRGGLWGVCVG	0.581 ± 0.0097
ICRGGYELLELG	0.68 ± 0.026
ICVAVESRVSRG	0.628 ± 0.046
ICYGIHYAQRGS	0.646 ± 0.069

Sequence	protein stability index
ICYGLHVPARRR	0.63303 ± 0.00013
IDDITMYRKKYR	0.66 ± 0.047
IDKGENTGKHRL	0.673 ± 0.027
IDLISENDNAVG	0.709 ± 0.021
IDMGEQTGKMIN	0.72 ± 0.012
IDSCFKEVAYGK	0.625 ± 0.014
IEDEHLEDAPYG	0.678 ± 0.048
IEETKDYTRKRQ	0.6484 ± 0.0034
IEGEVRKIGNPT	0.681 ± 0.086
IEHYPVSSPKMR	0.623 ± 0.079
IERCGIVKEVKG	0.74 ± 0.012
IFINAGGYTHTN	0.726 ± 0.067
IFSPHRPAVALV	0.626 ± 0.073
IFWGFSFRGWAC	0.656 ± 0.0067
IFWLFLPSVPFL	0.702 ± 0.12
IGARLMVGASRK	0.775 ± 0.16
IGFGPVSCARLF	0.679 ± 0.11
IGGLSLGESIGG	0.689 ± 0.02
IGLTVICHFMNV	0.576 ± 0.05
IGNKLSKMIDTS	0.665 ± 0.053
IGQCYLRHRGMS	0.5544 ± 0.0053
IGRRSRALKITE	0.629 ± 0.03
IGSRRMDADERV	0.691 ± 0.026
IGVSDSGMWMGN	0.694 ± 0.026
IICSKLHSPLVV	0.509 ± 0.031

Sequence	protein stability index
IIVGFFGLLLGL	0.5413 ± 0.0048
IIVWVGAGLWGV	0.594 ± 0.011
IKCCIGCSSICG	0.692 ± 0.042
IKFVRLEGLCPL	0.624 ± 0.019
IKGVEKDKKTQK	0.747 ± 0.045
IKKDSRQRKRDE	0.648 ± 0.0084
IKKKKKKENKRR	0.741 ± 0.014
IKLCRSTVVTGV	0.592 ± 0.013
IKNKDLISVIII	0.646 ± 0.042
IKRKQRKRKSEK	0.86 ± 0.14
IKSKKKKKRNKR	0.638 ± 0.032
IKSQRGIHLELR	0.634 ± 0.028
ILCQLRKFKFQN	0.58 ± 0.013
ILEGGGVLAWFG	0.7253 ± 0.0017
ILFIKQKYLIKK	0.6878 ± 0.003
ILGGVSPSAFVI	0.664 ± 0.022
ILGIESLVAGLL	0.697 ± 0.062
ILGQLHKHFKTS	0.546 ± 0.046
ILHGRSGLRELL	0.688 ± 0.023
ILNKYYEQSMRT	0.68 ± 0.011
ILPPPPPPPPPF	0.714 ± 0.039
ILRSVIFMDACV	0.629 ± 0.018
ILSMSQPHPILS	0.6175 ± 0.0042
ILTDFELLPVYR	0.731 ± 0.063
ILVGKIEGIVQE	0.662 ± 0.025

Sequence	protein stability index
INCDIIHRRKKG	0.6462 ± 0.0042
INGYRYHTVNIK	0.688 ± 0.03
INNTKQSENRKS	0.701 ± 0.054
INRLKPGRGQKT	0.658 ± 0.03
IPDATGYGWVRH	0.691 ± 0.018
IPDSSPIVPHPK	0.6722 ± 0.0065
IPEEHKLTWIIP	0.74 ± 0.067
IPFFHVVPRPPP	0.628 ± 0.024
IPIPLLPASSPP	0.6877 ± 0.0063
IPKDLSRLELYR	0.62 ± 0.071
IPPFRLLCRLRL	0.642 ± 0.022
IPPNPPPPNTIA	0.557 ± 0.0097
IPPPVLPSPPSP	0.672 ± 0.1
IPRCSPAGVSSY	0.696 ± 0.064
IPTVSLLHLPPV	0.699 ± 0.047
IQKNSGHPMKEA	0.711 ± 0.023
IQLEFEDMERGK	0.704 ± 0.11
IQNTERIKIQTK	0.6791 ± 0.0034
IRCGQFSVVSES	0.6 ± 0.028
IRHTQVSHIIYA	0.488 ± 0.029
IRKNWQRIGETA	0.662 ± 0.026
IRLFAPVVFLPL	0.644 ± 0.054
IRQTIEGRRLVM	0.662 ± 0.026
